Test results from publication PMC11457862 (2024).
Several values for one entry are separate records, joined by “and”; a condition that tells them apart may be missing. Equal values may be shown once.

Target: human IL-2 (human, UniProt P60568 21-153)
Test: FACS

EC50: 13.3 nM and 12.2 nM
B1: yeast-displayed 602 scFv (scFv, V domains shown)
VH: EVQLQESGPGLVAPSQSLSITCTVSGFSLTNYDISWIRQPPGKGLEWLGVIWTGGGTNYNSGFMSRLSITKDNSKSQVFLKMNSLQTDDTAIYYCVRQGRTPYWGQGTLVTVSA
VL: DIQVTQSPSSLSVSLGDRVTITCKASKDIYNRLAWYQQKPGNAPRLLISGATSLETGVPSRFSGSGSGKDYTLTITSLQTEDVATYYCQQFWGTPYTFGGGTKLEIK
